Data as given in the nanobody polyreactivity screen of Harvey et al. (2022).

Assay: yeast display, Sf9 membrane polyspecificity reagent, FACS + sequencing; frameworks hold sequencing errors
Method in brief: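 Nanobodies from a synthetic yeast display library (Saccharomyces cerevisiae BJ5465), induced 36–48 hours with galactose, were stained 1 hour at 4 °C with 10% biotinylated, detergent-solubilized Sf9 membrane reagent, enriched on streptavidin microbeads, then FACS-sorted. Anti-HA (expression) and streptavidin (reagent binding) fluorescence set low and high (top ~1%) gates. Polyreactivity labels come from the gate of origin. Genes were colony-PCR amplified, MiSeq 2 × 250 sequenced and filtered by CDR length.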

Sequence | polyreactivity (PSR sort gate)
QVQLQESGGGLAQAGGSLRLICAASGTLFPADSMGWYRQAPGKERELVAGITSGANTYYADSVNGRFTISHDNAKQTVYLQMDSLIPEDIAVYYCAAPGSSTYDLESWGQGTQVNVSS | high polyreactivity
QVQLVESGGGLVQAGGSHRLSCAASGSIFQSYAMGWYRQAPGKERELVAAIDRSGTSTYYADSVKGRFTISRDNAKNTVYLQMNSLKPEDTAVYYCNTLRRSWQMDYWGQGTQVTVSS | low polyreactivity
QVQLVESGGGLVQAGGSLRLSCAASGYIFDIYAMGWYRQAPGKERELVAVITRSGGGTYYADSVKGRFTISRDNAKNSVYLQMNSLKPEDTAVYYCAAESYVYGGSDYDYWGQGTQVTVSS | low polyreactivity
QVQLVESGGGLVQAGGSLRLSCAASGSIFGYNDMGWYRQAPGKERELVAAITTSGDSTYYADSVKGRFTISRDNAKNTVYLQMTSLKPEDTAVYYCNGDGEVVDWYHPYYVEYDYWGQGTQVTVSS | low polyreactivity
QVQLVESGGGLVQAGGSLRLSCAASGSTFYINAMGWYRQAPGKERELVAAITSGGSTNYADSVKGRFTISRDNAKNTVYLQMNSLKPEDTAVYYCAKVSYYPWRYDYWGQGTQVTVSS | low polyreactivity
QVQLVESGGGLVQAGGSLRLSCAASGFTFSHYAKGWYRQAPGKDRELVAAITASGGNTYYADSVKGRFTISRDNAKNTVYLQMNSLKPEDTAVYYCNAVSLKFTRKYEYWGQGTQVTVSS | high polyreactivity
QVQLVESGGGLVQAGGSLRLSCAASGRIFIDYAMGWSRQAHGKERELVAAIDSGGNSNYADSVKGRFTISRDNAKNSVYLQKNSLKPEDTAVYYCNASGVTTDIAGVYWGQGTQVSVSS | low polyreactivity
QVQLVESGGGLVQAGGSLRLSCAASGIIFPLYAMGWYRQAPGKDRELVADITRVGSTYYADSVKGRFTISRDNAKNTVYLQMNSLKPEDTAVYYCNKQKRWTYSHYFPTTYDYWGQGTQVTVSS | high polyreactivity
QVQLVESGGGLVQAGGSLRLSCAASGITFINYDMGWYRQAPGKERELVAAISQIGTSTYYADSVKGRCTISRDNAKNTVYLQMNSLKPEDTAVYYCNARYISTGFRYNYWGQGTQVTVSS | high polyreactivity
QVQLVESGGGLVQAGGSLRLSCSASGRTLGRNAMGWYRPAPGKERELVAAISWGGGDTSYADSVKGRFTISRDNAKNTVYLQMNSLKPEDTAVYYCNRYYTPYRRWGYDYWGQGTQVTVSS | high polyreactivity
QVQLVESGGGLVQAGGSLRLSCAASGFTFKYNVMGWYRQAPGKERELVSAISKRGGNTYYADSVKGRFTISRDIAKNTVYLQMNSLKPVDTAVYYCAADPTSPETSGQGYDYWGQGTQVTVSS | high polyreactivity
QVQLVESGGGLVQAGGSLRLSCAASGFIIKANAMGWYRQAPGKERELVASITFGGDSTYYADSVKGRFTISRDNAKNTVYLQMNSLKPEDTAVYYCNTRRRSYRTYYYWGQGTQVTVLS | low polyreactivity
QVQLVESGGGLVQAGGSLRLSCAASGSTFGFYAMGWYRQAPGKERELVAAIDWISGSTYYADSVKGRFTISRDNAKNTVYLQLNSLKPEDTAVYYCAAQFYYHFRYHFDWGQGTQVTVSS | low polyreactivity
QVQLVESGGCLVQAGGRLRLSCAASGRIFYRYSMGWYRQAPGKERELVAAINDVGSTYYADSVKGRFTISRDNAKNTVYLQMNILKPEDTAVYYCNGVNEHQSDFVVPFDYNHWGQGTQVTVSS | low polyreactivity
QVQLVESGGGLVQAGGSLRLSCAASGRIFFWYARGWYRQAPGKEWELVAGITSGGSTNYADSVKGRFTISRDNAKNTVYLQMNSLKPEDTAVYYCAKRSYRTHTYDYWGQGTQVTVSS | low polyreactivity
QVQLVESGGGLVQAGGSLRLSCAASGRTFYRNAMGWYRQAPGKEREFVASIDWSGGSTYYADSVKGRFTISRDNAKNTVYLQMNSLKPEDTAVYYCAAELDYFPGYDYWGQGTQVTVSS | low polyreactivity
QVQLVESGGGLVQAGGRLRLSCAASGSILNFYAMGWYRQAPGKEREFVASISWDGASTYYADSVKGRFTISRDNAKNTVYLPMNSLKPEDTAVYYCAATRYYSFWGQGTQVTVSS | low polyreactivity
QVQLVESGGGLVQAGGTLRLSCAASGRTFNAYPMGWYRQAPGKERELVAAITSSGTSTYYADSVKGRFTISRDNAKNTVYLQMNSLKPEDTAVYYCAAPWGYWGQCTQVTVSS | low polyreactivity
QVQLVESGGGLVQAGGSLRLSCAASGSIYTHYAMGWYRQAPRKQRELVAAISRRGGSTYYADSVKGRFTISRDNAKNTVYLPMHSLKPEDTAVYYCAKSPDTAKEYDYWGQGTQVTVSS | high polyreactivity
QVQLVESGGGLVQAGGSLRLSCAASGSTFYVYAMGWYRQAPGKERELVAAITVRGGSTYYADSVKGRFTISRDNAKNTVYLQMNSLKPEDTAVYYCAVDVSKPYYEMDYWGQGTQVTVSS | high polyreactivity
QVQLVESGGGLVQAGGSLRLSCAASGSTFDPYAMGWYRQAPGKERELVAAITWGGGSTYADSVKGRFTISRDNAKNTVYLQMNSLKPEDTAVYYCAAEYYLWLFEYYVEYDYWGQGTQVTVSS | high polyreactivity
QVQLVESGGGLVQAGGSLLLSCAASGSTCSYYAMGWYRQAPGKERQLVAAINRSGGSTYYADSVMGRFTISRDNAKNTVYVQMNSLKPEDTAVYSCAALRSKTVSYDRYDYWGQGTQVTVSS | high polyreactivity

Sequence | polyreactivity (PSR sort gate)
QVQLVESGGGLVQAGGSLRLTCAASGFIFNFYAMGWYRQAPGKERELVAAISRNGGSTYYADSVKGRFTISRDNAKNTVYLQMNSLKPEDTAVYYCNAGGSYGDFGYWGKGTQVTVSS | high polyreactivity
QVHLVESGGGLLQAGGSLRLSCAASGSTFYSYAMGWYRQAPGKERELVAAITYSDGDTYYADSVKGRFTISRDNAKNTVYLQMNSLKPEDTAVYYCAAEYQGQPGTGNLEYWGQGTQVTVSS | low polyreactivity
QVQLVESGGGLVQAGGSLRLSCAASGITFYSYTMGWYRQAPGKERELVAAISDNGGRTFYADSVKGRFTISRDNAKNTVYLQMNSLKPEDTAVDYCAADYSYYTSFRYDYWGQGTQVTVSS | low polyreactivity
QVQLVESGGGLVQAGGSLRLSCAASGRIFGIYAMGWYRQAPGKERELVAAISYSGGSTYYADSVKGRFTISRDNAKNTVYLQMNSMKPEDTAVYYCNADYYASYYPYYSIRLDYWGQGTQVTVSS | low polyreactivity
QDQHVESGGGLVQAGGSLRLSCAASGSIFDVYTMGWYRQAPGKERELVAAINTGGGSTYYADSVKGRFTISRDKAKNTVYLQMNSLKPEDTAVYYCAASVYHYGPLYYWGQGTQVTVSS | low polyreactivity
QVQLVESGGGLVKAGGSLRLSCAASGITCTKNAMGWYRQAPGKERELVAAISTSGGSTYYADSVKGRFTISRDTAKNTVYLQMTSLKPEDTAVYYCAARAVIRGGRYFYWGQGTLVTVSS | high polyreactivity
QVQLVESGGGLVQAGGSLRLSCAASGSIFLVNALGWYRQAPGKERELVAAISWSGGSTYYAESVKGRFTISRDNAKNTVYLQMKSLKPEDTAVYYCAADWFAANYYVNTVSALDYWGLGTQVTVSS | low polyreactivity
QVQLVESGGGLVQAGGSLRISCAASGRTFDRYAMGWYREAPGKERELVAVIRFIGGSTYYADSVKGRFTISRDNAKKTVYLQRNSLIPEDTAVYYCAAEVYDSYFFGYEYWGQGTQVTVSS | low polyreactivity
QVQLVESGGGLVQAGGSLRLSCAASGNIFLYYAMGWYRQAPGKERELVADIDSSGASTYYADSVKGRFTISRDNAKNTVYLQMNSLKPEDTAVYYCAARGRKNQRRYGYWGQGTQVTVSS | low polyreactivity
QVQLVESGGGLVQAGGSLRLSCAASGSIFGWNTMGWYRQAPGKERELVAAITWTGGRTYYADSVKGRFTISRDNAKNTVYLQMNSLKPEDTAVYYCNALRVIRGGIKGDYWGQGTQVTVSS | high polyreactivity
QVQLVESGGGLVQAGGSLRLSCAPSGRTYTVYTMGWYRQAPGKERELVAVISTGGRTYYADSVKGRFTISRDNAKNTVYLQMNSLKPEDTAVYYCAAKFTREYYWGQGTEVTVSS | high polyreactivity
QVQLLESGGGLVQAGGSLRLTCAASGITFQYYAMGWYRQAPGKERELVAAITSSGVSTYYADSVKGRFTISRDNAKNTVYLQMNSLKPEDTAVYYCNTVVRGWSSSAYDYWGQGTQVTVSS | low polyreactivity
QVQLVESGGGLVQAGGSLRLSCAASGRIFGPNAMGWYRPAPGKERELVAAISTRDGSTSYADSVKGRFTISRDNAKNTVYLQMNSLKPEDTAVYYCAKRWPYWYRVTQYDNVDYWGQGTQVTVSS | low polyreactivity
QVQLVESGGGLVQAGGSLRLSCAASGFTFYWNAMGWSRQAPGKERELVAAINGGDSTNYADSVKGRFTISRDNAKNTVYLQMNSLKPEDTAVYYCAAEPSLEAWTAFGSYYWGQGTQVTVSS | low polyreactivity
QVQLVESGGGLVQAGGSLRVSCAASGSIFYTYVMGWYREAPGKERELVAAISGTGGRTYYADSVKGRFTISRDNAKNTVYLQMNSLKPEDTAVYYCAALYNRVNGHYYWGQGTQVTVSS | high polyreactivity
QVQLVESGGGLVQAGGSLRLSCAASGLTLKRNAMGWYRQAPGKERELVAAISGRGGSTYYADSVKGRFTISRDNAKNTVYLQMNSLKPEVTAVYYCAATVQYSPIYDYWGQGTQVTVSS | high polyreactivity
QVQLVESGGGLVQAGGSLRLSCAASGSTFRGYAMGWYRQAPGKERDLVAAMSSNGDRTFYADSVKGRFTISRDNAKNTVYLQMNSLKPEDTAVYYCNAVYRGSWQLYGYWGLGTQVTVSS | high polyreactivity
QVQLVESGGGLVQAGGSLRLSCAASGGTFRKNAMGWYRQAPGKERELVAAITKSGGSTYYADSVKGRFTISRDNAKNTVYLQMNSLKPEDTAVYYCNTYPGSTQPPYDYWGQGTQVTVSS | low polyreactivity
QVQLVESGGGLVQAGGSLRLSCAASGSTFGYYTMGWYRQEPGKERELVAAITWSGGSTYFEDSVKGRFTISRDNAKNTVYLQMNSLKPEDTAVYYCAADYYWTPFGYWGQGTLVTVSS | low polyreactivity
QVQLVESGGGLVQAGGSLRLSCAASGFIFWYYAMGWYRQAPGKERELVATITSGGSTTYADSVKGRFTISRDNAKNTVYLQMNSLKPEDTAVYYCAAKGISRYDWGQGTQVTVSS | low polyreactivity
QVQLVESGGGLVQAGCSLRLSCAPSGSTFKVNDMGWYRQAPGKERELVAAIDKSGGTTYYADSVKGRFTLSRDNAKNTVYYQMNSLKPEDTAVYYCAADVIYEMDYWGQGTQVTVSS | low polyreactivity
